# Test results: patent US20230346919A1
# Target: SARS-CoV-2 spike SΔ21 displayed on VSV-eGFP-SARS-CoV-2-SΔ21 particles (SARS-CoV-2 isolate Wuhan-Hu-1) (UniProt P0DTC2)
# Experiment: cell-based or functional assay
substance,measurement,value
"human ACE2-Fc (hACE2 residues 1-615, HRV-3C site, human IgG1 Fc) (from UniProt Q9BYF1 18-615) (Fc fusion)","EC50, inhibition of VSV-SARS-CoV-2-SΔ21 infection (GRNT, Vero E6 cells)",29 µg/mL
